The results in this text go back to paper PMC10514974, “The NAC transcription factor MdNAC4 positively regulates nitrogen deficiency-induced leaf senescence by enhancing ABA biosynthesis in apple”.

Conditions in all cases: protein: recombinant; tags: GST (pGEX4T-1); label: biotin; blunt
In data set [1] the target is T1, MdNAC4-GST (apple, UniProt B6DXL4 1-350).
T1 sequence: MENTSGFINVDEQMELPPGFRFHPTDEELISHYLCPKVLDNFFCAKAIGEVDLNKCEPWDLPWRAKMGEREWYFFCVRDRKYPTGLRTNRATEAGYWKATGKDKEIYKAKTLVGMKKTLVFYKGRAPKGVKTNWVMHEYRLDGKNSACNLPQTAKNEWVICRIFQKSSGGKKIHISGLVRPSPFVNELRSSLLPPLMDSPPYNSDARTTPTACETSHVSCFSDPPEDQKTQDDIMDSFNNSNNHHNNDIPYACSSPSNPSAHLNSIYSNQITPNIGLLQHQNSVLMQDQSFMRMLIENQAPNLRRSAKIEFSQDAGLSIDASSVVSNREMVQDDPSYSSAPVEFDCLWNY
As to the kind of experiment: EMSA; LightShift binding buffer, 30 min at 24 °C in the dark; biotin-labeled probes; salt and pH not stated. A general note: Mobility shift assays separate free from complexed probe on a gel.

In data set [2] the target is T1, MdNAC4-GST. As to the kind of experiment: EMSA; unlabeled competitor 5x, 50x, 100x progressively abolished binding; LightShift binding buffer, 30 min at 24 °C in the dark; biotin-labeled probes; salt and pH not stated.
The target in data set [3] is T1, MdNAC4-GST. As to the kind of experiment: EMSA; unlabeled competitor 5x, 50x, 100x abolished binding; LightShift binding buffer, 30 min at 24 °C in the dark; biotin-labeled probes; salt and pH not stated.

B1: MdSAG39 mutant probe (dsDNA)
DNA 1: TTTTGTAAGGGACGGACCACGCTGA
DNA 2: TCAGCGTGGTCCGTCCCTTACAAAA
In the case of B1, in data set [1], the binding result is reported as “no binding”.

B2: MdNCED2 mutant probe (dsDNA)
DNA 1: TAAATCCACGACGGGGTCTCTCATG
DNA 2: CATGAGAGACCCCGTCGTGGATTTA
As to B2, the binding result in data set [1] is listed as “no binding”.

B3: MdNCED2 promoter probe P4 (ABRE) (dsDNA)
DNA 1: TAAATCCACCACGTGGTCTCTCATG
DNA 2: CATGAGAGACCACGTGGTGGATTTA
Turning to B3, the binding result in data set [2] is “binds”.

B4: MdSAG39 promoter probe P2 (ABRE) (dsDNA)
DNA 1: TTTTGTAAGGCACGTACCACGCTGA
DNA 2: TCAGCGTGGTACGTGCCTTACAAAA
With B4, the binding result in data set [3] was “binds”.
